Measured values from the supplement of paper PMC10567573.

B1: CAMK2D (parent)
chain: LLKHPNIVRLHDSISEEGFHYLVF

Variants of: B1
Assay: protein stability index of a GFP-peptide fusion (GPS, HEK-293T) (PSI 1-6); higher = more stable
Settings: c terminus: a fixed tail appended
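Also: lentivirally expressed fusions sorted by FACS into six bins by GFP to DsRed ratio, PSI derived from sequencing read proportions per bin multiplied by bin number.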

Protein stability index of substitutions, site by site:
V8: H 1.8, Q 1.94, L 2.21, E 2.17, M 2.59, D 2.41, Y 2.91, G 2.79, I 1.87, K 2.05, A 2.64, W 3.27, P 2.01, F 1.47, R 1.81
F19: R 2.02, T 3.57, G 1.23, Y 2.08, D 1.73, N 2.03, I 2.73, V 1.52, Q 2.66, M 2.08, K 3.11, W 2.42, S 1.45, E 2.38, C 1.37, A 1.81, P 1.53, H 1.73
P5: K 2.42, V 2.56, Y 1.57, W 2.57, N 2.58, M 1.72, S 2.59, L 3.34, T 2.59, Q 2.6
L10: S 1.86, D 1.74, R 1.17, M 3.69, T 1.43, N 2.25, Y 2.95, K 2.02, I 2.53, Q 1.7, F 3.99, A 2.84, W 3.54, H 2.14, P 2.49, C 2.11, V 1.75, G 1.36, E 2.5
S13: H 2.91, F 1.5, W 1.84, C 2.82, G 2.59, I 2.96, Q 1.7, N 2.13, D 2.46, E 1.47, A 3.1, V 3.9, P 2.75, R 1.83, Y 2.94, K 2.81, L 2.29
Y21: A 1.38, I 1.79, P 1.96, M 2.58, G 2.37, T 2.25, S 2.33, H 2.03, N 2.39, E 2.32, C 2, R 2.63, D 2.51, L 1.97, F 2.92, K 1.8, Q 2.39, W 2.79
N6: E 3.7, I 1.94, V 3.01, T 3.24, C 2.13, A 2.22, H 2.18, S 1.39, D 1.76, K 2.36, W 2.75, Q 3.46, F 2.94, Y 3.11, L 3.32, R 2.54, P 2.15
V23: A 2.81, Y 1.22, H 2.57, R 3.22, F 1.91, N 3.14, W 2.78, S 1.85, D 2.19, M 2.91, E 1.38, K 1.68, G 2.12, P 1.84, T 3.35, Q 1.87, L 2, I 1.99
L22: I 2.96, R 1.28, D 2.08, N 1.75, F 2.36, K 2.54, C 2.18, W 1.88, S 1.81, M 2.59, H 2.19, V 1.03, T 2.39, P 1.81, Q 1.3, Y 2.02, G 1.57, A 3.02, E 2.22
E16: Q 3.03, M 2.71, C 2.3, R 1.67, F 2.32, D 1.67, P 1.62, N 2.87, S 1.19, A 2.88, W 1.92, T 1.39, L 2.47, K 1.21, V 1.39
H20: C 2.07, M 2.05, D 1.96, Y 1.41, T 3.25, K 2.66, P 2.08, E 3.1, L 2.31, W 1.42, F 2.39, I 3.5, Q 2.65, V 3.17, S 2.75, R 2.08, A 1.73
E17: L 3.59, D 2.66, F 2.27, P 2.75, Q 1.84, V 2.47, K 2.71, N 3.79, T 2.31, S 2.93, M 4.04, W 2.94, Y 2.04, C 2.99, H 1.87, G 2.8, A 2.91, R 2.11
S15: E 2.57, I 3.54, G 1.8, D 1.44, W 3.22, V 2.2, F 2.56, Y 2.34, C 2.51, T 1.3, A 2.19, P 2.27, H 2.1, M 3.4, N 2.31, R 2.66, K 2.45, L 2.19
D12: R 3.07, F 4.12, K 3.1, Q 1.31, Y 2.35, N 1.61, P 2.38, S 3, V 2.63, G 3.51, L 2.47, I 2.54, T 2.59, H 3.02, C 3.3, A 2.96
H11: L 1.48, W 2.62, R 2.79, P 2.42, Y 2.88, I 2.7, F 1.96, Q 2.07, A 2.57, V 1.9, K 3.01, T 2.52, S 1.8, C 2.84, E 2.68, N 2.29, D 2.39
I7: Q 2.14, W 1.07, H 3.65, D 1.99, S 1.89, N 3.17, R 2.02, T 2.19, C 3.93, M 3.55, F 2.39, A 1.95, E 2.67, L 2.98, K 1.56, P 1.76
I14: W 1.4, R 1.75, T 1.91, M 1.18, S 2.15, C 2.44, Y 1.89, K 2.4, A 1.66, H 1.11, V 2.11, Q 1.78, P 2.74, E 2.8, N 2.05, D 1.64, G 1.64
G18: C 1.98, E 1.63, K 3.36, P 2.03, A 3.26, R 3.12, Q 1.94, F 2.73, L 3.43, T 1.87, D 2.39, I 2, M 2.1, N 1.5, S 2.3, W 1.61, Y 1.8, H 1.78
R9: G 1.79, D 3.18, K 3.39, H 2.1, M 2.74, E 3.23, P 2.45, F 1.26, V 1.84, L 3.22, A 2.1, T 1.68, Q 2.17, C 3.88, W 2.69, Y 2.87, N 2.7, S 2.58
F24: K 1.71, P 1.98, S 2.13, G 2.47, R 2.06, D 2.21, E 1.73, L 2.94, A 1.62, C 1.84, Q 1.85, N 1.51, H 2.39
